Results from US20120219559A1 (Johns Hopkins, published 2012).

T1: T61A
T1 sequence (chain, by the resolver, C terminal GFP fusion, not carried in the letters): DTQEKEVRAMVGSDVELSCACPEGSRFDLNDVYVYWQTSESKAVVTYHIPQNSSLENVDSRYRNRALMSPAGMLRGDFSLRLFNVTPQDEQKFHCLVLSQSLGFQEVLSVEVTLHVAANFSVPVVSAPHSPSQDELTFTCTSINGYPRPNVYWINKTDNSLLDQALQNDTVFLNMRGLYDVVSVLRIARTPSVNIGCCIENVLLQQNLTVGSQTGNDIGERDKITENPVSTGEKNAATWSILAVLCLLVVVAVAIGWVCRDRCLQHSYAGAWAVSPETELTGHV

T2: ICOS (Mus musculus, UniProt Q9WVS0)
T2 sequence (membrane protein, looked up): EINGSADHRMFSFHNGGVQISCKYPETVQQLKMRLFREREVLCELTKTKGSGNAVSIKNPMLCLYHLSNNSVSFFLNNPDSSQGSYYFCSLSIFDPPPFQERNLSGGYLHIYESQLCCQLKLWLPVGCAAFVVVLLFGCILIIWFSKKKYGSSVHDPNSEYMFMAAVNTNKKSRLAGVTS

T3: B7-DC (Mus musculus, UniProt Q9WUL5)
T3 sequence (membrane protein, looked up): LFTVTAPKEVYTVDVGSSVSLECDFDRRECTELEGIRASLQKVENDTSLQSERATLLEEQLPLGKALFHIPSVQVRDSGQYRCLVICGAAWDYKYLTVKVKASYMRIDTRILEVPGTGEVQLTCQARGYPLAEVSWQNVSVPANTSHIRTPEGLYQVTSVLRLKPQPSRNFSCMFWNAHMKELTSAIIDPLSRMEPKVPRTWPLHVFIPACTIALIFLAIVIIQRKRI

T4: B7-1
T4 chain: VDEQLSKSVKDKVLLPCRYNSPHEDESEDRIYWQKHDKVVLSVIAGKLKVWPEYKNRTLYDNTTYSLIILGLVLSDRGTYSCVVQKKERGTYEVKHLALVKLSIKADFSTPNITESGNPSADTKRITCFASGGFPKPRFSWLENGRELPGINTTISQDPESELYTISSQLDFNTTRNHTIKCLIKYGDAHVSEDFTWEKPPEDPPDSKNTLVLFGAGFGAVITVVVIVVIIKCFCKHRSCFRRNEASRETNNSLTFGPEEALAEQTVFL

T5: B7-2
T5 chain: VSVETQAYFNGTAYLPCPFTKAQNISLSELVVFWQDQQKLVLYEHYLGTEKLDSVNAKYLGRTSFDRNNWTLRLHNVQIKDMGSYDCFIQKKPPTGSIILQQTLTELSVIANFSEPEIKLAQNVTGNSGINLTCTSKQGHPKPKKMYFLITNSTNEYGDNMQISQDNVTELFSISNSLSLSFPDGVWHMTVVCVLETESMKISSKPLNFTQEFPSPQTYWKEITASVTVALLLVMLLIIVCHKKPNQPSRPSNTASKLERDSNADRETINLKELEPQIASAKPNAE

T6: CD28 (Mus musculus, UniProt P31041)
T6 sequence (membrane protein, looked up): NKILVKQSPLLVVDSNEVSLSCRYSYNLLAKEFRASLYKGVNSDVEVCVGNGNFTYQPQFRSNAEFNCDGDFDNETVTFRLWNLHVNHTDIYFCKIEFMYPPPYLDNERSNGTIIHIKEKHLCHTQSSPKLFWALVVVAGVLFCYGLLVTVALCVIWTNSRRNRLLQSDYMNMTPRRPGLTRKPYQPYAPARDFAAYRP

T7: PD-1 (Mus musculus, UniProt Q02242)
T7 sequence (membrane protein, looked up): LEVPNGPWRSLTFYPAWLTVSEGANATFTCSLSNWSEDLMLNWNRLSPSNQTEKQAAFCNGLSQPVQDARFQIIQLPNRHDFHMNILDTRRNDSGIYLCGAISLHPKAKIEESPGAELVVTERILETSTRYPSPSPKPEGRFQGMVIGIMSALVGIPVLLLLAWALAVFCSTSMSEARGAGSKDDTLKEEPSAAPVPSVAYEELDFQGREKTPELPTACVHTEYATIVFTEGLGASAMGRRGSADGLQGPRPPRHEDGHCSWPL

T8: mouse B7-H2, full length, expressed on 293T cells (mouse, UniProt Q9JHJ8 44-322)
T8 construct: whole, on cells
T8 sequence (looked up): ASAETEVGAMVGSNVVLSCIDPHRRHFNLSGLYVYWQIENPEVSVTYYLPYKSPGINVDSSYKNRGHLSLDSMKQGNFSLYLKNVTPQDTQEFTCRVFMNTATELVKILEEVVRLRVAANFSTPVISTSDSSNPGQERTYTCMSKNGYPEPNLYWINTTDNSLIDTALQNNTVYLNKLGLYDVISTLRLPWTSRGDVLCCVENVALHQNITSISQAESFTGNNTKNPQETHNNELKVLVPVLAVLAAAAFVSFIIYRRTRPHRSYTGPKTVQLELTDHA

T9: human B7-H7Ig fusion protein (human, UniProt Q9UM44 23-344)
T9 construct: not shown: Ig Fc tag; made from pMIgV or pHIgV plasmid and detected with anti-mouse Ig
T9 sequence: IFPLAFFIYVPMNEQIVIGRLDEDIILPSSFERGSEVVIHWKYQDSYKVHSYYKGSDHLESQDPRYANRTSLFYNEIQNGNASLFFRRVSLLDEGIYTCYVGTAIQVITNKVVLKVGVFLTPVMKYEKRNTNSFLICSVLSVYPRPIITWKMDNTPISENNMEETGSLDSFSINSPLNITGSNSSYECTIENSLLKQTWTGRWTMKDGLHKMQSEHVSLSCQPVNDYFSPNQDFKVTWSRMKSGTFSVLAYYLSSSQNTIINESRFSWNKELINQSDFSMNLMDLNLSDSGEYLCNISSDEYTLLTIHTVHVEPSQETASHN

T10: mouse B7-H2/hB7-H2IgV chimera, expressed on 293T cells (human; mouse, UniProt Q9JHJ8 150-322)
T10 construct: range 150-C-terminus; Mouse B7-H2 Ig V region (Met1-Val149) replaced with the corresponding human region (Met1-Gln123) in the mouse B7-H2 full length gene; also called chimeric gene product
T10 sequence: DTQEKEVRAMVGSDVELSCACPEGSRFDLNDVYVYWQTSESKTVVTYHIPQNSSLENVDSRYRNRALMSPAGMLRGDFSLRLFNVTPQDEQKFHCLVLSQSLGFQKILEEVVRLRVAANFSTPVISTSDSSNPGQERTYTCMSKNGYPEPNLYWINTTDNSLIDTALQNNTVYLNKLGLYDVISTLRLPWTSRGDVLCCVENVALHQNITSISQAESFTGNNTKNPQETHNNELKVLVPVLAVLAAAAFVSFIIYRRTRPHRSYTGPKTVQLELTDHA


How the values were obtained:
[1] = target: human CD28, full length, expressed on cells (CD28+293T cells) (human) (UniProt P10747); experiment: cell-based or functional assay
T61A = target: T1, T61A; experiment: flow cytometry on 293T cells expressing B7-H2-GFP mutants; normalised to wild type B7-H2 (100%) and vector control (0%)
ICOS = target: T2, ICOS; experiment: CDS well image, 293T cells transfected with the mouse gene, stained with the mouse fusion protein
B7-DC = target: T3, B7-DC; experiment: as above
CTLA-4 = CTLA-4 (Mus musculus, UniProt P09793); experiment: as above
B7-1 = target: T4, B7-1; experiment: as above
B7-2 = target: T5, B7-2; experiment: as above
CD28 = target: T6, CD28; experiment: as above
B7-H1 = B7-H1 (Mus musculus, UniProt Q9EP73); experiment: as above
PD-1 = target: T7, PD-1; experiment: as above
[2] = target: T8, mouse B7-H2, full length, expressed on …; experiment: as above
[3] = target: T9, human B7-H7Ig fusion protein; experiment: CDS screen: 384-well plate of 293T cells, one human transmembrane gene a well; B7-H7Ig plus anti-mIg FMAT blue; total fluorescence per well
[4] = target: T10, mouse B7-H2/hB7-H2IgV chimera, …; experiment: flow cytometry, 293T cells expressing the mouse B7-H2/hB7-H2IgV chimera (mB7-H2/hB7-H2IgV+ 293T)
Description: FIGS. 19A-19B. […] The results were analyzed by flow cytometry.

Chain of B7-H1 (Q9EP73 19-290 limits assumed): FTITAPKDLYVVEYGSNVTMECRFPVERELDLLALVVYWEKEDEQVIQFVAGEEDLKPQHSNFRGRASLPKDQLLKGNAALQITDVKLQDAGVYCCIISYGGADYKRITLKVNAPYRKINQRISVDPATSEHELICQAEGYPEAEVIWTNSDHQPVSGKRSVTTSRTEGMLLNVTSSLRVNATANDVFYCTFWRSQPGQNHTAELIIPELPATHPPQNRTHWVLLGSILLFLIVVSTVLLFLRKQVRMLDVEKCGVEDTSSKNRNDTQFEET
Chain of human CD28, full length, expressed on cells (CD28+293T cells) (human) (P10747 19-220): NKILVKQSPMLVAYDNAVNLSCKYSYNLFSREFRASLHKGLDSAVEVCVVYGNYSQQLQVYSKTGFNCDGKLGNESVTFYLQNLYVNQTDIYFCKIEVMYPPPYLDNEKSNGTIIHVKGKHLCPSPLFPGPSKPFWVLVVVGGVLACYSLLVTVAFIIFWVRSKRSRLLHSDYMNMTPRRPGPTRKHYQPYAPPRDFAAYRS

| Molecule | binding result (ICOS) | binding result (B7-DC) | binding result (CTLA-4) | binding result (B7-1) | binding result (B7-2) | binding result (CD28) | binding result (B7-H1) | binding result (PD-1) | binding result [2] | also measured |
| --- | --- | --- | --- | --- | --- | --- | --- | --- | --- | --- |
| mouse anti-human CD28 mAb CD28.6 (blocking) (antibody) |  |  |  |  |  |  |  |  |  | tetanus toxoid-elicited proliferation of memory T cells; inhibition [1]: > 50% |
| human CTLA4Ig fusion protein (from UniProt P16410 37-162) (Fc fusion) |  |  |  |  |  |  |  |  |  | Binding Percentage% (T61A): 32.1% |
| B7-2Ig (Fc fusion, also called mouse B7-2Ig fusion protein; not shown: Ig (Fc) part and any linker of the R&D Systems fusion protein) VSVETQAYFNGTAYLPCPFTKAQNISLSELVVFWQDQQKLVLYEHYLGTEKLDSVNAKYLGRTSFDRNNWTLRLHNVQIKDMGSYDCFIQKKPPTGSIILQQTLTELSVIANFSEPEIKLAQNVTGNSGINLTCTSKQGHPKPKKMYFLITNSTNEYGDNMQISQDNVTELFSISNSLSLSFPDGVWHMTVVCVLETESMKISSKPLNFTQEFPSPQTYWK | no binding | no binding | binds | no binding | no binding | binds | no binding | no binding | no binding |  |
| human B7-H7CR, full length, expressed on 293T cells (B7-H7CR+293T cells) (receptor, This id also stands for B7-H7CR on human CD4+ T cells in the functional rows; also called TMIGD2; B7-H7R) LSVQQGPNLLQVRQGSQATLVCQVDQATAWERLRVKWTKDGAILCQPYITNGSLSLGVCGPQGRLSWQAPSHLTLQLDPVSLNHSGAYVCWAAVEIPELEEAEGNITRLFVDPDDPTQNRNRIASFPGFLFVLLGVGSMGVAAIVWGAWFWGRRSCQQRDSGNSPGNAFYSNVLYRPRGAPKKSEDCSGEGKDQRGQSIYSTSFPQPAPRQPHLASRPCPSPRPCPSPRPGHPVSMVRVSPRPSPTQQPRPKGFPKVGEE |  |  |  |  |  |  |  |  |  | binding result [3]: binds |
| mouse CD28Ig fusion protein (Fc fusion, UniProt P31041 20-149, looked up, Bought from R&D Systems; Ig (Fc) part not given) NKILVKQSPLLVVDSNEVSLSCRYSYNLLAKEFRASLYKGVNSDVEVCVGNGNFTYQPQFRSNAEFNCDGDFDNETVTFRLWNLHVNHTDIYFCKIEFMYPPPYLDNERSNGTIIHIKEKHLCHTQSSPK | no binding | no binding | no binding |  |  | no binding | no binding | no binding | no binding | binding result [4]: binds |
| B7-1Ig (Fc fusion, also called mouse B7-1Ig fusion protein; not shown: Ig (Fc) part and any linker of the R&D Systems fusion protein) VDEQLSKSVKDKVLLPCRYNSPHEDESEDRIYWQKHDKVVLSVIAGKLKVWPEYKNRTLYDNTTYSLIILGLVLSDRGTYSCVVQKKERGTYEVKHLALVKLSIKADFSTPNITESGNPSADTKRITCFASGGFPKPRFSWLENGRELPGINTTISQDPESELYTISSQLDFNTTRNHTIKCLIKYGDAHVSEDFTWEKPPEDPPDSKN | no binding | no binding |  | no binding | no binding |  |  | no binding | no binding |  |
